From patent US20120316071A1 (published 2012)

B1: Fab VH5-51_IGHD5-18*01>3_IGHJ4*01 G100K/G104T G24T/S28R/G35V & V3-4_IGLJ1*01 V91L/S96P S52M (Fab, V domains shown)
VH: EVQLVQSGAEVKKPGESLKISCKTSGYRFTSYWIVWVRQMPGKGLEWMGIIYPGDSDTRYSPSFQGQVTISADKSISTAYLQWSSLKASDTAMYYCARRKYSYTYDYFDYWGQGTLVTVSS
VL: QTVVTQEPSFSVSPGGTVTLTCGLSSGSVSTSYYPSWYQQTPGQAPRTLIYMTNTRSSGVPDRFSGSILGNKAALTITGAQADDESDYYCLLYMGPGISYVFGTGTKVTVL
notes: Fab expressed in E. coli; heavy chain vector adds CH1 with His6 and Flag tags, light chain vector adds lambda CL; also called H:KT TRV & L:LP S52M
B2: Fab VH5-51_IGHD5-18*01>3_IGHJ4*01 G100K/G104T G24T/S28R/G35V & V3-4_IGLJ1*01 V91L/S96P S52N (Fab, V domains shown)
VH: EVQLVQSGAEVKKPGESLKISCKTSGYRFTSYWIVWVRQMPGKGLEWMGIIYPGDSDTRYSPSFQGQVTISADKSISTAYLQWSSLKASDTAMYYCARRKYSYTYDYFDYWGQGTLVTVSS
VL: QTVVTQEPSFSVSPGGTVTLTCGLSSGSVSTSYYPSWYQQTPGQAPRTLIYNTNTRSSGVPDRFSGSILGNKAALTITGAQADDESDYYCLLYMGPGISYVFGTGTKVTVL
notes: Fab expressed in E. coli; heavy chain vector adds CH1 with His6 and Flag tags, light chain vector adds lambda CL; also called H:KT TRV & L:LP S52N
B3: Fab VH5-51_IGHD5-18*01>3_IGHJ4*01 G100K/G104T G24T/S28R/G35V & V3-4_IGLJ1*01 V91L/S96P S52P (Fab, V domains shown)
VH: EVQLVQSGAEVKKPGESLKISCKTSGYRFTSYWIVWVRQMPGKGLEWMGIIYPGDSDTRYSPSFQGQVTISADKSISTAYLQWSSLKASDTAMYYCARRKYSYTYDYFDYWGQGTLVTVSS
VL: QTVVTQEPSFSVSPGGTVTLTCGLSSGSVSTSYYPSWYQQTPGQAPRTLIYPTNTRSSGVPDRFSGSILGNKAALTITGAQADDESDYYCLLYMGPGISYVFGTGTKVTVL
notes: Fab expressed in E. coli; heavy chain vector adds CH1 with His6 and Flag tags, light chain vector adds lambda CL; also called H:KT TRV & L:LP S52P
B4: Fab VH5-51_IGHD5-18*01>3_IGHJ4*01 G100K/G104T G24T/S28R/G35V & V3-4_IGLJ1*01 V91L/S96P S52Q (Fab, V domains shown)
VH: EVQLVQSGAEVKKPGESLKISCKTSGYRFTSYWIVWVRQMPGKGLEWMGIIYPGDSDTRYSPSFQGQVTISADKSISTAYLQWSSLKASDTAMYYCARRKYSYTYDYFDYWGQGTLVTVSS
VL: QTVVTQEPSFSVSPGGTVTLTCGLSSGSVSTSYYPSWYQQTPGQAPRTLIYQTNTRSSGVPDRFSGSILGNKAALTITGAQADDESDYYCLLYMGPGISYVFGTGTKVTVL
notes: Fab expressed in E. coli; heavy chain vector adds CH1 with His6 and Flag tags, light chain vector adds lambda CL; also called H:KT TRV & L:LP S52Q
B5: Fab VH5-51_IGHD5-18*01>3_IGHJ4*01 G100K/G104T G24T/S28R/G35V & V3-4_IGLJ1*01 V91L/S96P S52T (Fab, V domains shown)
VH: EVQLVQSGAEVKKPGESLKISCKTSGYRFTSYWIVWVRQMPGKGLEWMGIIYPGDSDTRYSPSFQGQVTISADKSISTAYLQWSSLKASDTAMYYCARRKYSYTYDYFDYWGQGTLVTVSS
VL: QTVVTQEPSFSVSPGGTVTLTCGLSSGSVSTSYYPSWYQQTPGQAPRTLIYTTNTRSSGVPDRFSGSILGNKAALTITGAQADDESDYYCLLYMGPGISYVFGTGTKVTVL
notes: Fab expressed in E. coli; heavy chain vector adds CH1 with His6 and Flag tags, light chain vector adds lambda CL; also called H:KT TRV & L:LP S52T
B6: Fab VH5-51_IGHD5-18*01>3_IGHJ4*01 G100K/G104T G24T/S28R/G35V & V3-4_IGLJ1*01 V91L/S96P S52V (Fab, V domains shown)
VH: EVQLVQSGAEVKKPGESLKISCKTSGYRFTSYWIVWVRQMPGKGLEWMGIIYPGDSDTRYSPSFQGQVTISADKSISTAYLQWSSLKASDTAMYYCARRKYSYTYDYFDYWGQGTLVTVSS
VL: QTVVTQEPSFSVSPGGTVTLTCGLSSGSVSTSYYPSWYQQTPGQAPRTLIYVTNTRSSGVPDRFSGSILGNKAALTITGAQADDESDYYCLLYMGPGISYVFGTGTKVTVL
notes: Fab expressed in E. coli; heavy chain vector adds CH1 with His6 and Flag tags, light chain vector adds lambda CL; also called H:KT TRV & L:LP S52V
B7: Fab VH5-51_IGHD5-18*01>3_IGHJ4*01 G100K/G104T G24T/S28R/G35V & V3-4_IGLJ1*01 V91L/S96P S52W (Fab, V domains shown)
VH: EVQLVQSGAEVKKPGESLKISCKTSGYRFTSYWIVWVRQMPGKGLEWMGIIYPGDSDTRYSPSFQGQVTISADKSISTAYLQWSSLKASDTAMYYCARRKYSYTYDYFDYWGQGTLVTVSS
VL: QTVVTQEPSFSVSPGGTVTLTCGLSSGSVSTSYYPSWYQQTPGQAPRTLIYWTNTRSSGVPDRFSGSILGNKAALTITGAQADDESDYYCLLYMGPGISYVFGTGTKVTVL
notes: Fab expressed in E. coli; heavy chain vector adds CH1 with His6 and Flag tags, light chain vector adds lambda CL; also called H:KT TRV & L:LP S52W
B8: Fab VH5-51_IGHD5-18*01>3_IGHJ4*01 G100K/G104T G24T/S28R/G35V & V3-4_IGLJ1*01 V91L/S96P S52Y (Fab, V domains shown)
VH: EVQLVQSGAEVKKPGESLKISCKTSGYRFTSYWIVWVRQMPGKGLEWMGIIYPGDSDTRYSPSFQGQVTISADKSISTAYLQWSSLKASDTAMYYCARRKYSYTYDYFDYWGQGTLVTVSS
VL: QTVVTQEPSFSVSPGGTVTLTCGLSSGSVSTSYYPSWYQQTPGQAPRTLIYYTNTRSSGVPDRFSGSILGNKAALTITGAQADDESDYYCLLYMGPGISYVFGTGTKVTVL
notes: Fab expressed in E. coli; heavy chain vector adds CH1 with His6 and Flag tags, light chain vector adds lambda CL; also called H:KT TRV & L:LP S52Y
B9: Fab VH5-51_IGHD5-18*01>3_IGHJ4*01 G100K/G104T G24T/S28R/G35V & V3-4_IGLJ1*01 V91L/S96P T53D (Fab, V domains shown)
VH: EVQLVQSGAEVKKPGESLKISCKTSGYRFTSYWIVWVRQMPGKGLEWMGIIYPGDSDTRYSPSFQGQVTISADKSISTAYLQWSSLKASDTAMYYCARRKYSYTYDYFDYWGQGTLVTVSS
VL: QTVVTQEPSFSVSPGGTVTLTCGLSSGSVSTSYYPSWYQQTPGQAPRTLIYSDNTRSSGVPDRFSGSILGNKAALTITGAQADDESDYYCLLYMGPGISYVFGTGTKVTVL
notes: Fab expressed in E. coli; heavy chain vector adds CH1 with His6 and Flag tags, light chain vector adds lambda CL; also called H:KT TRV & L:LP T53D
B10: Fab VH5-51_IGHD5-18*01>3_IGHJ4*01 G100K/G104T G24T/S28R/G35V & V3-4_IGLJ1*01 V91L/S96P T53E (Fab, V domains shown)
VH: EVQLVQSGAEVKKPGESLKISCKTSGYRFTSYWIVWVRQMPGKGLEWMGIIYPGDSDTRYSPSFQGQVTISADKSISTAYLQWSSLKASDTAMYYCARRKYSYTYDYFDYWGQGTLVTVSS
VL: QTVVTQEPSFSVSPGGTVTLTCGLSSGSVSTSYYPSWYQQTPGQAPRTLIYSENTRSSGVPDRFSGSILGNKAALTITGAQADDESDYYCLLYMGPGISYVFGTGTKVTVL
notes: Fab expressed in E. coli; heavy chain vector adds CH1 with His6 and Flag tags, light chain vector adds lambda CL; also called H:KT TRV & L:LP T53E

Target: T1, Recombinant Human DLL4 (delta-like protein 4) (human, UniProt Q9NR61 27-524)
T1 construct: also called rHuman DLL4; Delta-like 4
Test: ELISA, DLL4 coated on plate, Fab at 100 nM

Point of comparison: B1, “ELISA Signal-blank (100 nM Fab)” value 0.46. Against it:
- B2 — lower, 0.45
- B3 — lower, 0.32
- B4 — lower, 0.39
- B5 — lower, 0.34
- B6 — lower, 0.44
- B7 — lower, 0.29
- B8 — lower, 0.41
- B9 — lower, 0.16
- B10 — lower, 0.09
